The text below walks through data of the DeepSol protein solubility set.

This data set is described as follows: soluble on expression in E. coli; label from the status in PepcDB or PDB records.
For “MGSDKIHHHHHHMIDEHHIDALTKLLGDKGVVTRREDMEAYEAGARYDRGRAAAVLRPVTTEEVSAAVGYCVRSGIALIPQSGNTGLVSGSTPDESGSEVVVSLDRLTRQFALDLDNRSVRVDAGFRLSELNRRLEEHGLFFPIDLGADPRIGGMIATNTGGSRFLKYGDVRRNTLGLKVVLADEAGTVLDLGSDLRKNNTGVDWKQIFIGTSGAFGIVTECVLNLERLPKQTATAFLVPASGAHVLPLLKAMEERLGAYLSAFEGMSRNAIAAAFAHVPALKNPFQGGKVPDYVILAEISRTSSPREGEQPLDAVLESVLAEIWEMEEVLLADALVGPPHEIWALRHALSEGVKHLGKLIAFDLSFRRGDIMAFCDHMKTEMPEKFPGVTVCDFGHIGDGGVHFNLVVAKDSPLLADATFEQRLREWVFAVAVEQYHGSFSAEHALGRRNQAFYDLYTPEKLKNMAAGLKTLTSPGKLGSVRFG”, the “soluble on expression in E. coli” value is listed as “not soluble”.
“MANIYLNIEADSAQELKEILSQLATDNVVEVTQSLNTADKKATEEVEKAAKKEPAKKKKATAKKKEEVSTASTSDTEPSKTGEKVAPTDSETEEVSATADLHLGATKADVQEAMRKAMDKGKRPMIKTCFSRYNAEKLSDLKEEHYGKFITDLETLVGE”: the “soluble on expression in E. coli” value is reported as “not soluble”.
As for “MTESITRDSMQYDVVIVGAGPSGLSAAIKLKQLAEQNGREISVCVVEKGSEVGAHSLAGAVIDPIALNELISDWKEKGAPLTRTVTQDKVLFLTEKKAFNLPITPNFDNHGNYIVSLGEVVRWLAEQAENMGVEIYPGFAAAEVLYHEDGSVKGIATGNMGIGKDGEPTDSFQPGMELWAQQTLFAEGCRGSLSKQIIERFQLDQNSQPQTYGLGIKEVWEVPSEQHQPGLVVHSAGWPLDSKTYGGAFVYHFDDNKVAVGFVVGLDYQNPYLSPFEEFQRFKTHPEIRKTFEGGRRIAYGARSLIEGGLQSLPKLSFKGGILVGDAAGFLNMPRIKGIHTAMKSAMLAAEAVFPLLENLEEVEGFDSGKEAADYQQRFEQSWLYQELYAARNVRPSFKWGVYLGSIYTGIDQMIFRGKAPWTLKHHGKDNEQLKKAAACKPIDYPKPDGVLTFDRLSSVFLANLAHEENQPDHLVLNNPQTMIDVNYKEYASPETRYCPAGVYEIVEENGNPRLQINAANCVHCKTCDIKDPTQNITWICPEGASGPNYGGM”, the “soluble on expression in E. coli” value is given as “not soluble”.
Under “MGELWGNGGGCYSPVPPVMIPFMAYYEKRGDAWRAQIRRKGYPTLSATFDTKAEAQRWAAELEGDMSRARFVDVREAEATSLATALERYESEVTESKKGAKQERVRIKKWMESKFAGKSLASLRSSDMASYRDAEIKAGRSTATVRLDLAVISHLYTVATKDWGIEGLTNPCRALRMPKGSKQRERRPTADELKSLYKAAGEISPELPVIIELAVETAMRRSELVTLRKDQIQGKVAFLEDTKNGERRSVPLSSRARELIEGVPAPIKGGPLFRLKADTVSNYFPLACEKANIQGLRLHDLRHEATSRLFERGFTMMEVASITGHKTLAMLKRYTHLSPQDLAEKLG” stands “not soluble”.
With “MAHHHHHHMVGAMHDIQVGFLDRCSVFQFTLTCTVLDFQKVAEPQPKSPGSLPSSTRTAPNPNGEEVEKHINKEQYTVRCLGSEAYTEALKNYLDDGCIVRVIGRLKTTEVVDAGKKQPFPCIIVEQGRWSTVSLVHSLRKQRRDWQLQNILTSVATLE”, the “soluble on expression in E. coli” value was “not soluble”.
“MTENNRLSVKLPGLDLKNPIIPASGCFGFGEEYAKYYDLNKLGSIMVKATTLHPRFGNPTPRVAETASGMLNAIGLQNPGLEVIMTEKLPWLNENFPELPIIANVAGSEEADYVAVCAKIGDAANVKAIELNISCPNVKHGGQAFGTDPEVAAALVKACKAVSKVPLYVKLSPNVTDIVPIAKAVEAAGADGLTMINTLMGVRFDLKTRQPILANITGGLSGPAIKPVALKLIHQVAQDVDIPIIGMGGVANAQDVLEMYMAGASAVAVGTANFADPFVCPKIIDKLPELMDQYRIESLESLIQEVKEGKK”: the “soluble on expression in E. coli” value was “soluble”.
Under “SLVVAIDPGHGGQDSGAVGPTGKLEKNVTLAIGRELARQINATPGMKAYMTRDSDVFIPLPMRAQRARAAKADIFISIHADAADNRAATGSSVYVLSTRGASSQRARWLADKENAADLVGGVRLQKAEPTLANVLLDLAQSGYMKASEDAADHVLGSLKRVANNHKSEVEHANFAVLRTSDMPAMLVETAFISNAYEERRLVDPAFQRQLAAAVLEGVITFFTNQPPPGTLFALRAQAEPATTGGSVITSTH” stands “not soluble”; under “MGSDKIHHHHHHMVQSLKVILWGEEIGRLAWDARRRLSYFMYNPAFLKKGLNISPLAAPVDGARGLMPVWGEEAKIYQKLPAFLADSLPDSWGNQLFELWRQQNHLSNADITPLDKLSFIGKRGMGALEFLPEVSRERKAEKIDIKSLANLAERIFSERENARILPEESVTMQSLLTVGTSAGGRQPKAIVAINLKNGEVRSGQISGLEEFDYYLVKFGNSQYSSAELEMSYYELATMAGINMMPSKLYQVDGNNHFMTKRFDRNHGKKIHTQTLAAISPDADSYEQLITVCRKLHLPETDCYEVFRRMVFNVLANNTDDHNKNFSFVMSEDGTWRLSPAYDVTYIFDNGGFLPNEDHCMYIRAKLRNITREDVIQFAKDNGIRRPDAIIRDIVNAMKQFRTVATKYGVAEQWVGRVENTIVDRLKSWRELEEMAPEICELVINGHIIKNIRIEQAYKGNFHLLAEIDGHERKFIIGKNKEEFSLIESMGIANLSSNQLKDMVEKYFIHLKV”, “not soluble”.
Next, “MSLITLYHCHGARSFRPLWMLEEMGLDYELKMLPFPPRVFAKEYLAINPLGTIPFMIDGDTKMTESSGICQYLGTRHGPTPLVVGVDDPAYGAYLNWMFFSDATLTFPQTLVLRYGTLEPNERRQPQVVEDYAKWFLGRLRAVEVAAGQGDYLCAGRFTAADVVNGYALRLASNLGLAKDFGPNVTAYWARLQQRDGYQRALEAETRAGEAQQVPKRAEGHHHHHH”: “soluble”.
Under “MSLPYSSSGVGHNGFDKADLHIHTKCSDGLFTPEEIVHKAIHVGLKAISITDHDTVTGIDQAKPLALELGLELIPGVEMSSAYKGYDIHILGYFFDYQQSELKGYLDHCRLLRTERAERMVQKLAKMGVKIEIEQIIMKAQNGSVGRPHIAAVLQDEGFVKSFSEAFSKYLGSHSPAYVKSIETHPEEVIRLINEAGGLSFLAHPAQNVPDEILRQLISFGLDGLEIIHPSHDTYRQNYYREIANEYFLLFSGGSDYHGPKDHEDNFGQVWIPYEWVTKMKSRLAPAVKEGHHHHHH” stands “soluble”; under “MGSDKIHHHHHHMFSQNDNINILVIRFKRIGDAILSLPLCHSLKLTFPNSKVDFVLYEDVAPLFEGHPYIDNVITITKEEQKNPFKYIKKVYNVTRKKYDIIIDIMSTPKSELFCMFSRKTPFRIGRYKKKRGFFYNYKMKEKESLNKVDKFLNQLLPPFEEVGFDVKKDYDFKFFAEKKEKEKYKQKMLETGVDFSKPVIAFSIYSRVAHKIYPIDKMKEVVKFLINRYSAQIIFFYSADQKDEIQKIHKEIGDFKNIFSSIETPTIKNLVPFLENCDYYIGNEGGARHLAQGVGIPTLAIFSPSADLKEWLPFPSEKNMGISPIDMLEKNALSLDDFNKMNPEEQFSLIDIETIKEMSDELIEKNKRK”, “not soluble”.
On to “LDRHLQPLLLELATLTRAENSGVAPKVSDERKELDRLLAEQEGNRRALTAANVAVDDMELEIRRVQEDERKLRRREAEGKRQLAAEVDEEKRRDIKHDIYAAKSRIADLMSELQEAHNEIHALRNNRDLNQQRVSDTEARIDKARAAVDALGEDTTAADRHERIETLRLELPSDVVAQFDEQRDENEVGVASFNNRSCGGCFIILPPADISIIRRAPMNVLPQCPDCGSYLVRQG”, for which the “soluble on expression in E. coli” value was “not soluble”.
Next, “MTLPLNPAMAATFPPPVMEARRWIQGLSFPADRPLLNLSQAAPVEPPPAELRAALAEAALHDPQAHLYGPVLGLPALRAEIAAQWSAAYGGRIEPAQVAITQGCNQAFCAIMATLAGAGDEVILPTPWYFNHKMWLDMQGVMAVPLPTGPCLLPDAEEAAALVGPRTRAIVLVSPNNPGGVEYPAATLEAFRDLARARGLALIVDETYRDFDSRTGAPHALFADPDWDGVLVHLYSFSKAYRLTGHRVGAVVASAARLAQIEKFLDTVAICPSQLGQIGALWGIRNLAQWVAGERAEILARRTAMVGGFSALDGWTLLGCGAYFAYVEHPFDTPSDRLAPRLVQEAGVLLLPGTMFQPEGSEAGARQFRMAFANVDQAGIAELFSRLAQVTD”: “not soluble”; “MQALYQLSATGAQQQNQQIPIGLSNSLLYQQLAAHQQIAAQQHQQQLAVSAAHQTQNNIMLATSAPSLINHMENSTDGKVKDDPNSDYDLQLSIQQQLAAAAQAAQMGQTQIGPQIVGQQGQPVVATTAGSTNGSAAVTQPDPSTSSGPDGPKRLHVSNIPFRFRDPDLKTMFEKFGVVSDVEIIFNERGSKGFGFVTMERPQDAERARQELHGSMIEGRKIEVNCATARVHSKKVKPTGGILDQMNPLMAQSALAAQAQMNRALLLRSPLVAQSLLGRGAALIPGMQQPAFQLQAALAGNPLAQLQGQPLLFNAAALQTNALQQSAFGMDPAAVQAALLANEQARFQLAAAAAQGNEYIMYHQAKQQELPGRIPSSGNASAFGEQYLSNALATASLPSYQMNPALRTLNRFTPY”: “not soluble”; “MVKEPGGKHVLCVGAAVLDTLFRVADMPKGEGKVLPYEVLQIAEGMASSAAYAVHRMGGRASLWGAVGDDETGTRILRDLSESGIDTSGMTVAPGARSALSTIIIDNRGERLIVPFYDHRLHEKKRACTPEDIALFDAVLVDVRWPELALDVLTVARALGKPAILDGDVAPVETLEGLAPAATHIVFSEPAATRLTGLETVKDMLPVLHARYPQTFIAVTAGPAGCWWTEADDPTVHFQTTMQVEAVDTLAAGDIFHGTFALAMAEGMQSRAAVRLSSVAAALKCTVFGGRIGAPTREETEEAMRQWLERESEPALRAS”: “soluble”.
Under “MNITKAFCLSIALLGASNMQAITNSDFVIQQDNTKINNYQTNRPETSKRLFVSQAVEQQIAHIKQLLTNARLAWMFENCFPNTLDTTVHFDGKDDTFVYTGDIHAMWLRDSGAQVWPYVQLANKDAELKKMLAGVIKRQFKCINIDPYANAFNMNSEGGEWMSDLTDMKPELHERKWEIDSLCYPIRLAYHYWKTTGDASIFSDEWLTAIAKVLKTFKEQQRKEDPKGPYRFQRKTERALDTMTNDGWGNPVKPVGLIASAFRPSDDATTFQFLVPSNFFAVTSLRKAAEILNTVNKKPDLAKECTTLSNEVETALKKYAVYNHPKYGKIYAFEVDGFGNQLLMDDANVPSLIALPYLGDVKVNDPIYQNTRKFVWSEDNPYFFKGTAGEGIGGPHIGYDMIWPMSIMMKAFTSQNDAEIKTCIKMLMDTDAGTGFMHESFHKNDPKNFTRSWFAWQNTLFGELILKLVNEGKVDLLNSIQLEHHHHHH” stands “not soluble”; under “MSLSKHHIIVKSGSTLEQLAKAKTFAFDKTGTLTQNQLVIQDVLPENGFDKETIQSYAASLEQQSDHIIANSLVQGTDKNLIQAVSNLQESTGNGVSGTVDGKNVMVGKLSYVAPDANVNKAKTTAVYVSVDGKYAGCITFKDRLRPETPQTLARLRKQGAKHIMMLTGDNKDVAQAIADVAGVDDVRASLLPAQKIEAIKNVAPENRPVVMTGDGINDAPSLTAADVGIAMGAKGASAASESADAVIMVNDLSKINDAVAIAKHTMKVAEGHHHHHH”, “soluble”; under “MSLAKPFDAYISVTVKARGNGTVHLGPIHKRWSRLDMGQFLLGGSRFVDSQRQEFIYYFHPGDMKPPLNVYFSGYRTAEGFEGYYMMKRMNAPFLLIGDPRVEGGSFYIGSSEYEQGIINVIDETLEKLNFKSHELILSGLSMGSFGALYYGAQLNPQAIIVGKPLVNIGTIAEHMRLLRPEEFGTALDVLVSNEGDTSQASIQALNQKFWQTFQKKSLSQTVFAIAYMQHDDYDPHAFQELLPVLTAHQARVMNRSIPGRHNDDSEGHHHHHH”, “not soluble”.
